Literature values, collected in PMC7614842.

Molecular target: C3d C3d (Mus musculus) (UniProt P01027)
Sequence of UniProt P01027 (P01027 1002-1303): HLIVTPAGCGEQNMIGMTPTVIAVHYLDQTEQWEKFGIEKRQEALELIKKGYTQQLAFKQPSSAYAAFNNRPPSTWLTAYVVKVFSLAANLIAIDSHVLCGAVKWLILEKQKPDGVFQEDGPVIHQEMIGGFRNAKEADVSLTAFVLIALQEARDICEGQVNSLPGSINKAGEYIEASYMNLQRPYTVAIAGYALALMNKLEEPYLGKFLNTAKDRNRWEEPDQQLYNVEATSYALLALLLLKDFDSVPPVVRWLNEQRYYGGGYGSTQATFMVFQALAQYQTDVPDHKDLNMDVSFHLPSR

Kd: 140 nM
Substance: CR2 (from UniProt P19070)
